Results reported in patent US20240199762A1 (PHILOGEN S P A, published 2024).

T1: human FAP expressed on transduced cells (SKRC52-hFAP, HT-1080-hFAP) (human, UniProt Q12884 1-760)
T1 construct: whole, on cells; Also the target in SKRC52-hFAP tumor cryosections and in tumors of tumor-bearing mice; also called cell-expressed human FAP
T1 sequence (looked up): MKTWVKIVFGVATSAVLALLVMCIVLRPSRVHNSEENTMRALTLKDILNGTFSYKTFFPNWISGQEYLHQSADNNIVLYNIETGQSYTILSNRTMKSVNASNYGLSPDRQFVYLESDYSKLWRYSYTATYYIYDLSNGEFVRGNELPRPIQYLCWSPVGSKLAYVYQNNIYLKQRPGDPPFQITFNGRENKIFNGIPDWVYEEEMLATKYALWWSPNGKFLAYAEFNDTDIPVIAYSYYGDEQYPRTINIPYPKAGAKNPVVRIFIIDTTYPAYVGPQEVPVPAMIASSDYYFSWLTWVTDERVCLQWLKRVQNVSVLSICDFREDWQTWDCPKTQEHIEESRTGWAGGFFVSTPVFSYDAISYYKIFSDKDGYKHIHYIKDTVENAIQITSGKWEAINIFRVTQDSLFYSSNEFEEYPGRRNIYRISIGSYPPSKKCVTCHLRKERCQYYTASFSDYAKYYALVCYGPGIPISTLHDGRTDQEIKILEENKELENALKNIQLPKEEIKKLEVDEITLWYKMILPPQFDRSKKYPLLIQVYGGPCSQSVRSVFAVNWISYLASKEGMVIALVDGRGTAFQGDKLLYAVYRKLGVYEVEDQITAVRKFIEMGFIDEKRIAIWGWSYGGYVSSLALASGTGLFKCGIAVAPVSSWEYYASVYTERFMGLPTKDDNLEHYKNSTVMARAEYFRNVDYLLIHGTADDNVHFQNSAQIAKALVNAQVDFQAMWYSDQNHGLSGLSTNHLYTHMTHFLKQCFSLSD

T2: human FAP-ECD (extracellular domain) recombinant fragment containing a C-terminal His6 tag (human, UniProt Q12884 26-760, randomly biotinylated with NHS ester-activated biotin (as used on the SA chip and Streptawell plates))
T2 construct: also called biotinylated human FAP-ECD; biotinylated human FAP
T2 sequence: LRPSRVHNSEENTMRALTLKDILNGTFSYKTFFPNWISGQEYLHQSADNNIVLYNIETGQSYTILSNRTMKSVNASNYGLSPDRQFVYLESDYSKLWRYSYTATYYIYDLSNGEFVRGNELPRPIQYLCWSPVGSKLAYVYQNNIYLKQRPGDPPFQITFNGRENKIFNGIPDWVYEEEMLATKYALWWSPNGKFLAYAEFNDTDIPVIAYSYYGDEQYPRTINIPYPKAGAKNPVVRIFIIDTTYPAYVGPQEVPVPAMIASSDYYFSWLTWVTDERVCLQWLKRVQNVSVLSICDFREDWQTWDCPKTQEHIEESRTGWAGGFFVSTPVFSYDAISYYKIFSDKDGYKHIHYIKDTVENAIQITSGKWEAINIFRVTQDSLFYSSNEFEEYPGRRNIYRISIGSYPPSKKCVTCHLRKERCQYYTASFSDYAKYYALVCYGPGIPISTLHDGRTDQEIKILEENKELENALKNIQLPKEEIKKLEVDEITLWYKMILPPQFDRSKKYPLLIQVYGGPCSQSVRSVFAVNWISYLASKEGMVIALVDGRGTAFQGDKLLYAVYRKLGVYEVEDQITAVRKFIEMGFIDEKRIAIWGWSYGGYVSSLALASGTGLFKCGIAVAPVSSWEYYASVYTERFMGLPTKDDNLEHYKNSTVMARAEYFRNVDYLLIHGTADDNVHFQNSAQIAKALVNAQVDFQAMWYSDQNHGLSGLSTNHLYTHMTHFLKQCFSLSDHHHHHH


How the values were obtained:
[1] = target: T1, human FAP expressed on transduced cells …; assay: immunofluorescence on SKRC52-hFAP tumor cryosections, FITC conjugate at 10 ug/mL
Protocol: Immunofluorescence experiments were performed with 7NP2 and KSF (negative control), both in IgG1 format on cryosections of renal cell carcinoma SKRC52-hFAP tumor tissue slides, which were transduced to express human FAP. The 7NP2 and KSF IgG1 molecules were conjugated to FITC to allow detection. Cryostat sections (10 μm) were stained using the 7NP2 and KSF IgG1 conjugates at a final concentration of 10 μg/mL and detected with rabbit anti-FITC and goat anti-rabbit AlexaFluor488 antibody. Slides were mounted with fluorescent mounting medium and analyzed with a microscope (FIG. 5).

[2] = target: T2, human FAP-ECD (extracellular domain) …; assay: epitope ELISA on biotinylated human FAP on Streptawell plates
Protocol: To evaluate binding, 100 nM of biotinylated human FAP were coated on Streptawell plates for 30 min at 37° C.
The C5 antibody in IgG2a format was incubated together with the 7NP2 antibody in IgG1 format, the F5 antibody in IgG1 format (WO2016/116399), the ESC11 antibody in IgG1 format (Fisher et al., (2012) Clin Cancer Res; 18(22)), or the (negative control) antibody KSF in IgG1 format for 1.5 h at room temperature at a concentration of 5 μg/mL in the antigen-coated wells. After 3 washes with PBS, binding of the antibodies to human FAP was detected using anti-human or anti-murine HRP conjugates (FIG. 7).

binding result [1] | binding result [2] | Binder
binds | – | anti-FAP antibody 7NP2 in IgG1 format (antibody, V domains shown, also called 7NP2 IgG1; 7NP2(IgG1)) VH: EVQLLESGGGLVQPGGSLRLSCAASGFTFSSYAMSWVRQAPGKGLEWVSAIGSVGGPTYYADSVKGRFTISRDNSKNTLYLQMNSLRAEDTAVYYCAKRLAWFDYWGQGTLVTVSS VL: EIVLTQSPGTLSLSPGERATLSCRASQSVSSSYLAWYQQKPGQAPRLLIYGASSRATGIPDRFSGSGSGTDFTLTISRLEPEDFAVYYCQQSGKGPLTFGQGTKVEIKR
– | no binding (tested: 5 µg/mL) | anti-hen egg lysozyme antibody KSF in IgG1 format (antibody, V domains shown, Negative control; It was conjugated to FITC in the immunofluorescence and ex vivo experiments; also called KSF IgG1; KSF(IgG1)) VH: not shown VL: SSELTQDPAVSVALGQTVRITCQGDSLRSYYASWYQQKPGQAPVLVIYGKNNRPSGIPDRFSGSSSGNTASLTITGAQAEDEADYYCQSSPLNRLAVVFGGGTKLTVLG
